Laboratory results taken from patent US20110020369A1.

B1: chimeric anti-human TSLPR 13H5 antibody (antibody, V domains shown, not shown: a dimerising Fc or GST)
VH: QVLLKQSGPSLVQPSQSLSITCTVSGFSLSRYGVHWVRQSPGKGLEWLGVIWRSGSTDYNAAFMSRLSITQDNSKSQVFFNMNSLQSDDSAIYYCAKKAFYVMDYWGQGTSVTVSS
VL: DIQMTQTTSSLSASLGDRVTISCRASQDISIYLNWYQQKPDGTVKLLIYYTSRLHSGVPSRFSGSGSGTNFSLTITNLEEEDIATYFCQQGNTLPWTFGGGTKLEIKR
B2: mouse anti human TSLPR antibody 13H5 (antibody, mouse IgG1, V domains shown)
VH: B1 VH
VL: B1 VL
B3: mouse anti-human TSLPR antibody 70E8 (antibody, mouse IgG1, V domains shown)
VH: DVQLQESGPDLVKPSQSLSLTCTVTNYSITSGYSWPWIRQFPGNKLEWLGYIHSSGRTNYNPSLKSRISITRDTSKNQFFLQLNSVTPEDTATYYCARSQLGLVFFAYWGQGTLVTVSA
VL: DIVMTQSQKFMSTSVGDRVSVTCKASQSVGANVAWYQQIPGHSPKVLIYSASYRFSGVPDRFTGSGSGTDFTLTISNVQSEDLAEYFCQQYNSYPYTFGGGTKLEIRR
B4: rat anti-human TSLPR antibody 18B3 (antibody, V domains shown)
VH: EVQLVESGGGLVQPGRSLRLSCVASGFTFNNYWMTWVRQAPGKGLEWVASITDTSGRTYYPDSVKGRFTISRDHAKSTLYLQMNSLRPEDTATYYCTKTLGGIPRDWGQGVMVTVSS
VL: NIQLTQSPSLLSASVGDRVTLSCKGSQNINNYLAWYQQKLGEAPKLLIFKTNILQTGIPLRFSGSGSGTDYTLTISSLHCEDLATYYCYQFNNGFTFGPGTKLELKR

Tests used:
hTSLPR-Ig fusion (human) [1] = target: hTSLPR-Ig fusion (human) (UniProt Q9HC73); experiment: SPR BIAcore T100, huTSLPR-hIg amine-coupled on CM5, antibody as analyte, bivalent analyte model, n = 2
hTSLPR-Ig fusion (human) [2] = target: hTSLPR-Ig fusion (human) (UniProt Q9HC73); experiment: SPR BIAcore T100, huTSLPR-hIg amine-coupled on CM5, antibody as analyte, bivalent analyte model, n = 6
hTSLPR-ECTO-His (human) = experiment: ELISA, plate coated with TSLPR 50 ng/well, HRP goat anti-mouse detection

hTSLPR-Ig fusion (human), sequence (Q9HC73 23-231): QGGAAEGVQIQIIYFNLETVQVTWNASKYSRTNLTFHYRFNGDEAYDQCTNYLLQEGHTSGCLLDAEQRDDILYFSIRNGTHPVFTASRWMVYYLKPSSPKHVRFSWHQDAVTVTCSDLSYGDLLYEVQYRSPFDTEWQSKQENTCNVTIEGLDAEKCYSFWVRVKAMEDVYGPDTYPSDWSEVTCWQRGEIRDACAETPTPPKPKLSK

Row | Binder | Kd (hTSLPR-Ig fusion (human) [1]) [nM] | koff (hTSLPR-Ig fusion (human) [1]) [s⁻¹] | kon (hTSLPR-Ig fusion (human) [1]) [M⁻¹ s⁻¹] | Kd (hTSLPR-Ig fusion (human) [2]) [nM] | koff (hTSLPR-Ig fusion (human) [2]) [s⁻¹] | kon (hTSLPR-Ig fusion (human) [2]) [M⁻¹ s⁻¹] | EC50 (hTSLPR-ECTO-His (human)) [mg/L]
1 | B1 | 0.102 | 0.000136 | 1.34e+06 |  |  |  | 
2 | B2 |  |  |  | 0.037 | 7.8e-05 | 2.12e+06 | 0.0106
3 | B3 | 0.079 | 0.00012 | 1.52e+06 |  |  |  | 0.0162
4 | B4 | 0.008 | 1.5e-05 | 1.81e+06 |  |  |  | 
